Measurements as given in article doi:10.1101/2025.05.13.653593 (bioRxiv, 2025).

Biological target: T1, EccB5 (encoded by the Rv1782c gene), spotted on the Mtb proteome microarray (Mycobacterium tuberculosis, UniProt P9WNQ9 1-506)
T1 sequence: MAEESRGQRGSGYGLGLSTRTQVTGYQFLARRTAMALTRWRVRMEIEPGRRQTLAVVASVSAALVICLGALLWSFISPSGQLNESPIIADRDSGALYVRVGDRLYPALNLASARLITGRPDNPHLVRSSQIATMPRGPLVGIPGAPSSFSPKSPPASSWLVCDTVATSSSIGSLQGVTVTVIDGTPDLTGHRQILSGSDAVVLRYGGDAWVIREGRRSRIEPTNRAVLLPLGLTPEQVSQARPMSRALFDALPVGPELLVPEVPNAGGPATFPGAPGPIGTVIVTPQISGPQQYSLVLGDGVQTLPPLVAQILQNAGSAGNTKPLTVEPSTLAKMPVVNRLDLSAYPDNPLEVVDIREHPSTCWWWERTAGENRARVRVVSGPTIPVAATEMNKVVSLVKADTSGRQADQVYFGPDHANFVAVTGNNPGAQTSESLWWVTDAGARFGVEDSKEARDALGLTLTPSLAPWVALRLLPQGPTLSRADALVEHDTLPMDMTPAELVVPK
Experiment: peptide or protein array
Conditions: both partners purified

B1: recombinant human GSDMD protein (natural protein, UniProt P57764 1-484, looked up)
chain: MGSAFERVVRRVVQELDHGGEFIPVTSLQSSTGFQPYCLVVRKPSSSWFWKPRYKCVNLSIKDILEPDAAEPDVQRGRSFHFYDAMDGQIQGSVELAAPGQAKIAGGAAVSDSSSTSMNVYSLSVDPNTWQTLLHERHLRQPEHKVLQQLRSRGDNVYVVTEVLQTQKEVEVTRTHKREGSGRFSLPGATCLQGEGQGHLSQKKTVTIPSGSTLAFRVAQLVIDSDLDVLLFPDKKQRTFQPPATGHKRSTSEGAWPQLPSGLSMMRCLHNFLTDGVPAEGAFTEDFQGLRAEVETISKELELLDRELCQLLLEGLEGVLRDQLALRALEEALEQGQSLGPVEPLDGPAGAVLECLVLSSGMLVPELAIPVVYLLGALTMLSETQHKLLAEALESQTLLGPLELVGSLLEQSAPWQERSTMSLPPGLLGNSWGEGAPAWVLLDECGLELGEDTPHVCWEPQAQGRMCALYASLALLSGLSQEPH
notes: also called gasdermin D; recombinant GSDMD
B1: binds.
